Biological target: GLP-1R (receptor addressed by the glucose-stimulated insulin secretion assay of Table 1)
Test: cell-based or functional assay

B1: peptide of GAC-9 (not tethered to an antibody) (peptide)
peptide: HXEGTFTSDVSSYLEGQAAKEFIAWLVKXR
modifications: Aib at position 2 and Aib before the C-terminal R; linking residue K26 (so in the source)
- EC50 (µM), glucose-stimulated insulin secretion (GSIS) assay: 0.094 µM

Binder: HXEGTFTSDVSSYLEGQAAKEFIAWLVKGR (Aib at position 2; linking residue K26 (so in the source)) [peptide of GAC-4 (not tethered to an antibody)]
- EC50 (µM), glucose-stimulated insulin secretion (GSIS) assay: 0.041 µM

Reference: US20120148586A1 (published 2012)
